According to US20240117038A1 (Ablynx, published 2024):
Numbering of substitutions follows the chain as printed.

Experiments:
mouse CX3CR1 = target: T1, mouse CX3CR1 (mouse, UniProt Q9Z0D9 1-354); test: cell-based or functional assay
T1 sequence (looked up): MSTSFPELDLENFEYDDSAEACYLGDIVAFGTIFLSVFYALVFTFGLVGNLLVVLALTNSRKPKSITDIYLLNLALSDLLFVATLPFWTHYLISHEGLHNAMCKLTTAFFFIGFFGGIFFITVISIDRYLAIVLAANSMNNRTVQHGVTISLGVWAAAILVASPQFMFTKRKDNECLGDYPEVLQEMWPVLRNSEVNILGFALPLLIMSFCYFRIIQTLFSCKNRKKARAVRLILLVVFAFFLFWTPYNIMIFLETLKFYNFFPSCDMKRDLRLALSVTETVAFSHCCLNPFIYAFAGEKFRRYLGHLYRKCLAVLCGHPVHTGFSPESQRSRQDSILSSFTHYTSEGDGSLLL

human CX3CR1 [1] = target: T2, human CX3CR1 (human, UniProt P49238 1-355); test: cell-based or functional assay
T2 sequence: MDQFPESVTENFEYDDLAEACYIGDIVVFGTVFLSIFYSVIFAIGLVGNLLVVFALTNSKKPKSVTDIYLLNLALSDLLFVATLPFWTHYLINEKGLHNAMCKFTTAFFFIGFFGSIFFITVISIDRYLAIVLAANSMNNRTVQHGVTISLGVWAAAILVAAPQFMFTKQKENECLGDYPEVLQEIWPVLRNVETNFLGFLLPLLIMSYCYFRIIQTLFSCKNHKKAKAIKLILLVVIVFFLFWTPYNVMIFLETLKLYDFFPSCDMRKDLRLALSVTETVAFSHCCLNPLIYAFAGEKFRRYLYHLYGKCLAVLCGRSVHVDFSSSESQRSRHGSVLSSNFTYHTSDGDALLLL

human CX3CR1 T280M = target: T3, human CX3CR1 T280M (human, UniProt P49238 1-355); test: flow cytometry, AF-647 labelled soluble CX3CL1 on transiently transfected HEK293T cells, human CX3CR1 T280M
T3 construct: Transiently transfected in HEK293T cells (pcDNA3.1); also called huCX3CR1 variant T280M (Rs3732378)
T3 sequence: T2 sequence with T280M

human CX3CR1 V249I = target: T4, human CX3CR1 V249I (human, UniProt P49238 1-355); test: flow cytometry, AF-647 labelled soluble CX3CL1 on transiently transfected HEK293T cells, human CX3CR1 V249I
T4 construct: Transiently transfected in HEK293T cells (pcDNA3.1); also called huCX3CR1 variant V249I (Rs3732379); printed V2491 in the text
T4 sequence: T2 sequence with V249I

human CX3CR1 V249I/T280M = target: T5, human CX3CR1 V249I/T280M (human, UniProt P49238 1-355); test: flow cytometry, AF-647 labelled soluble CX3CL1 on transiently transfected HEK293T cells, human CX3CR1 V249I/T280M
T5 construct: Transiently transfected in HEK293T cells (pcDNA3.1); also called huCX3CR1 variant V249I and T280M
T5 chain: T2 sequence with V249I, T280M

human CX3CR1 [2] = target: T2, human CX3CR1; test: flow cytometry, AF-647 labelled soluble CX3CL1 on transiently transfected HEK293T cells, human CX3CR1 WT

B1: human CX3CL1/Fraktalkine (ligand, UniProt P78423 25-339, looked up)
chain: QHHGVTKCNITCSKMTSKIPVALLIHYQQNQASCGKRAIILETRQHRLFCADPKEQWVKDAMQHLDRQAAALTRNGGTFEKQIGEVKPRTTPAAGGMDESVVLEPEATGESSSLEPTPSSQEAQRALGTSPELPTGVTGSSGTRLPPTPKAQDGGPVGTELFRVPPVSTAATWQSSAPHQPGPSLWAEAKTSEAPSTQDPSTQASTASSPAPEENAPSEGQRVWGQGQSPRPENSLEREEMGPVPAHTDAFQDWGPGSMAHVSVVPVSSEGTPSREPVASGSWTPKAEEPIHATMDPQRLGVLITPVPDAQAATR
modifications: labelled with AF647 (in house) in the binding and competition assays; unlabelled in the chemotaxis and pERK assays
notes: Bought protein; also called huCX3CL1; huCX3CL1-AF647
Mouse CX3CR1
  EC50, ERK phosphorylation in CHO K1 mCX3CR1 cells: 2.5 nM
Human CX3CR1 [1]
  EC50, ERK phosphorylation in CHO K1 huCX3CR1 cells: 2 nM
Human CX3CR1 T280M
  EC50: 19 nM
Human CX3CR1 V249I
  EC50: 2.1 nM
Human CX3CR1 V249I/T280M
  EC50: 4.2 nM
Human CX3CR1 [2]
  EC50: 3.3 nM
